Measured values from the supplement of paper PMC5998384.

What was measured:
HeLa Kyoto [1] = assay: solubility in G1/S (NP-40 vs SDS abundance) (log2 ratio); higher = more soluble; details: cell cycle stage: G1/S
HeLa Kyoto [2] = assay: solubility change mitosis vs G1/S (difference of NP-40 vs SDS log2 ratios) (log2 ratio difference); higher = more soluble in mitosis
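For solubility change mitosis vs G1/S (difference of NP-40 vs SDS log2 ratios) in this document: synchronized HeLa Kyoto cells (double thymidine block for G1/S, nocodazole release for mitosis), protein amounts in NP-40 versus SDS lysates quantified by mass spectrometry, three biological replicates.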
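For solubility in G1/S (NP-40 vs SDS abundance) in this document: HeLa Kyoto cells arrested at G1/S by double thymidine block, proteins quantified by TMT10plex mass spectrometry in mild NP-40 versus SDS extracts, three biological replicates.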

Sequence | solubility in G1/S (log2) (HeLa Kyoto [1]) | solubility change mitosis (log2) (HeLa Kyoto [2])
MEGLGRSCLWLRRELSPPRPRLLLLDCRSRELYESARIGGALSVALPALLLRRLRRGSLSVRALLPGPPLQPPPPAPVLLYDQGGGRRRRGEAEAEAEEWEAESVLGTLLQKLREEGYLAYYLQGGFSRFQAECPHLCETSLAGRAGSSMAPVPGPVPVVGLGSLCLGSDCSDAESEADRDSMSCGLDSEGATPPPVGLRASFPVQILPNLYLGSARDSANLESLAKLGIRYILNVTPNLPNFFEKNGDFHYKQIPISDHWSQNLSRFFPEAIEFIDEALSQNCGVLVHCLAGVSRSVTVTVAYLMQKLHLSLNDAYDLVKRKKSNISPNFNFMGQLLDFERSLRLEERHSQEQGSGGQASAASNPPSFFTTPTSDGAFELAPT [DUSP9] | 0.279 | -0.104
MEGRSAAAETFVWVNNASAHSQSVAKAKYEFLFGRSEGKAPDTSDHGGSTLLPPNVTNEFPEYGTMEEGGEGLRASLEFDGEALPCHPQEQQGVQPLTGCHSGLDSVTEGPKDVREAPSQSHLKEQSLQPIDSLISALKATEARIISGTLQATKVLDQDAVSSFSVQQVEKELDTASRKTQRVNKTLPAGQKNLPEIPLSAEVTTEESFYLSIQKDLTALLTGDTQAEISQIMNNGRKGAVCVQEPSCPLASLGSSAVTCHSAGSVGFLKEQRSALGREHPGGCDRSSSMGRPGRVKHVEFQGVEILWTGGDKRETQHPIDFETSLQRTASPDSKESSKVPRHLISSAGLCNSSSLTENVWDESWKAPSERPGTSSGTFSPVRLDESGEDEVFLQENKQHLEKTPKPERDRERISEQEEHVKGEDEDILGPGYTEDSTDVYSSQFETILDNTSLYYSAESLETLYSEPDSYFSFEMPLTPMIQQRIKEGGQFLERTSGGGHQDILSVSADGGIVMGYSSGVTNGLNDASDSIYTKGTPEIAFWGSNAGVKTTRLEAHSEMGSTEILEKETPENLSNGTSSNVEAAKRLAKRLYQLDRFKRSDVAKHLGKNNEFSKLVAEEYLKFFDFTGMTLDQSLRYFFKAFSLVGETQERERVLIHFSNRYFYCNPDTIASQDGVHCLTCAIMLLNTDLHGHVNIGKKMTCQEFIANLQGVNEGVDFSKDLLKALYNSIKNEKLEWAVDDEEKKKSPSESTEEKANGTHPKTISRIGSTTNPFLDIPHDPNAAVYKSGFLARKIHADMDGKKTPRGKRGWKTFYAVLKGTVLYLQKDEYKPEKALSEEDLKNAVSVHHALASKATDYEKKPNVFKLKTADWRVLLFQTQSPEEMQGWINKINCVAAVFSAPPFPAAIGSQKKFSRPLLPATTTKLSQEEQLKSHESKLKQITTELAEHRSYPPDKKVKAKDVDEYKLKDHYLEFEKTRYEMYVSILKEGGKELLSNDESEAAGLKKSHSSPSLNPDTSPITAKVKRNVSERKDHRPETPSIKQKVT [PSD3] | -0.107 | -0.00479
MEIAPQEAPPVPGADGDIEEAPAEAGSPSPASPPADGRLKAAAKRVTFPSDEDIVSGAVEPKDPWRHAQNVTVDEVIGAYKQACQKLNCRQIPKLLRQLQEFTDLGHRLDCLDLKGEKLDYKTCEALEEVFKRLQFKVVDLEQTNLDEDGASALFDMIEYYESATHLNISFNKHIGTRGWQAAAHMMRKTSCLQYLDARNTPLLDHSAPFVARALRIRSSLAVLHLENASLSGRPLMLLATALKMNMNLRELYLADNKLNGLQDSAQLGNLLKFNCSLQILDLRNNHVLDSGLAYICEGLKEQRKGLVTLVLWNNQLTHTGMAFLGMTLPHTQSLETLNLGHNPIGNEGVRHLKNGLISNRSVLRLGLASTKLTCEGAVAVAEFIAESPRLLRLDLRENEIKTGGLMALSLALKVNHSLLRLDLDREPKKEAVKSFIETQKALLAEIQNGCKRNLVLAREREEKEQPPQLSASMPETTATEPQPDDEPAAGVQNGAPSPAPSPDSDSDSDSDGEEEEEEEGERDETPCPALVPPTDSLGPGDRSPPGSPSTPTEQRISVSSPGRGHKVFVVTRVESPPERAEPPASPTPPSPPPPPSPPASPSLPPAGAIDTRDTGSSEPQPPPEPPRSGPPLPNGLKPEFALALPPEPPPGPEVKGGSCGLEHELSCSKNEKELEELLLEASQESGQETL [PPP1R37] | 0.0581 | -0.284
MEKLSALQEQKGELRKRLSYTTHKLEKLETEFDSTRHYLEIELRRAQEELEKVTEKLRRIQSNYMALQRINQELEDKLYRMGQHYEEEKRALSHEIVALNSHLLEAKVTIDKLSEDNELYRKDCNLAAQLLQCSQTYGRVHKVSELPSDFQERVSLHMEKHGCSLPSPLCHPAYADSVPTCVIAKVLEKPDPASLSSRLSDASARDLAFCDGVEKPGPRPPYKGDIYCSDTALYCPEERRRDRRPSVDAPVTDVGFLRAQNSTDSAAEEEEEAEAAAFPAGFQHEAFPSYAGSLPTSSSYSSFSATSEEKEHAQASTLTASQQAIYLNSRDELFDRKPPATTYEGSPRFAKATAAVAAPLEAEVAPGFGRTMSPYPAETFRFPASPGPQQALMPPNLWSLRAKPGTARLPGEDMRGQWRPLSVEDIGAYSYPVSAAGRASPCSFSERYYGGAGGSPGKKADGRASPLYASYKADSFSEGDDLSQGHLAEPCFLRAGGDLSLSPGRSADPLPGYAPSEGGDGDRLGVQLCGTASSPEPEQGSRDSLEPSSMEASPEMHPAARLSPQQAFPRTGGSGLSRKDSLTKAQLYGTLLN [BEGAIN] | 0.208 | 0.103
MEKLYSENEGMASNQGKMENEEQPQDERKPEVTCTLEDKKLENEGKTENKGKTGDEEMLKDKGKPESEGEAKEGKSEREGESEMEGGSEREGKPEIEGKPESEGEPGSETRAAGKRPAEDDVPRKAKRKTNKGLAHYLKEYKEAIHDMNFSNEDMIREFDNMAKVQDEKRKSKQKLGAFLWMQRNLQDPFYPRGPREFRGGCRAPRRDIEDIPYV [TCEAL4] | 0.49 | 0.452
MEKPRSIEETPSSEPMEEEEDDDLELFGGYDSFRSYNSSVGSESSSYLEESSEAENEDREAGELPTSPLHLLSPGTPRSLDGSGSEPAVCEMCGIVGTREAFFSKTKRFCSVSCSRSYSSNSKKASILARLQGKPPTKKAKVLHKAAWSAKIGAFLHSQGTGQLADGTPTGQDALVLGFDWGKFLKDHSYKAAPVSCFKHVPLYDQWEDVMKGMKVEVLNSDAVLPSRVYWIASVIQTAGYRVLLRYEGFENDASHDFWCNLGTVDVHPIGWCAINSKILVPPRTIHAKFTDWKGYLMKRLVGSRTLPVDFHIKMVESMKYPFRQGMRLEVVDKSQVSRTRMAVVDTVIGGRLRLLYEDGDSDDDFWCHMWSPLIHPVGWSRRVGHGIKMSERRSDMAHHPTFRKIYCDAVPYLFKKVRAVYTEGGWFEEGMKLEAIDPLNLGNICVATVCKVLLDGYLMICVDGGPSTDGLDWFCYHASSHAIFPATFCQKNDIELTPPKGYEAQTFNWENYLEKTKSKAAPSRLFNMDCPNHGFKVGMKLEAVDLMEPRLICVATVKRVVHRLLSIHFDGWDSEYDQWVDCESPDIYPVGWCELTGYQLQPPVAAEPATPLKAKEATKKKKKQFGKKRKRIPPTKTRPLRQGSKKPLLEDDPQGARKISSEPVPGEIIAVRVKEEHLDVASPDKASSPELPVSVENIKQETDD [L3MBTL2] | -0.293 | 0.0658
MELLCCEGTRHAPRAGPDPRLLGDQRVLQSLLRLEERYVPRASYFQCVQREIKPHMRKMLAYWMLEVCEEQRCEEEVFPLAMNYLDRYLSCVPTRKAQLQLLGAVCMLLASKLRETTPLTIEKLCIYTDHAVSPRQLRDWEVLVLGKLKWDLAAVIAHDFLAFILHRLSLPRDRQALVKKHAQTFLALCATDYTFAMYPPSMIATGSIGAAVQGLGACSMSGDELTELLAGITGTEVDCLRACQEQIEAALRESLREASQTSSSPAPKAPRGSSSQGPSQTSTPTDVTAIHL [CCND3] | 0.226 | -0.386
MEPPMEPSGGEQEPGAVRFLDLPWEDVLLPHVLNRVPLRQLLRLQRVSRAFRSLVQLHLAGLRRFDAAQVGPQIPRAALARLLRDAEGLQELALAPCHEWLSDEDLVPVLARNPQLRSVALGGCGQLSRRALGALAEGCPRLQRLSLAHCDWVDGLALRGLADRCPALEELDLTACRQLKDEAIVYLAQRRGAGLRSLSLAVNANVGDAAVQELARNCPELHHLDLTGCLRVGSDGVRTLAEYCPVLRSLRVRHCHHVAESSLSRLRKRGVDIDVEPPLHQALVLLQDMAGFAPFVNLQV [FBXL15] | 0.189 | -0.195
MERKRWECPALPQGWEREEVPRRSGLSAGHRDVFYYSPSGKKFRSKPQLARYLGGSMDLSTFDFRTGKMLMSKMNKSRQRVRYDSSNQVKGKPDLNTALPVRQTASIFKQPVTKITNHPSNKVKSDPQKAVDQPRQLFWEKKLSGLNAFDIAEELVKTMDLPKGLQGVGPGCTDETLLSAIASALHTSTMPITGQLSAAVEKNPGVWLNTTQPLCKAFMVTDEDIRKQEELVQQVRKRLEEALMADMLAHVEELARDGEAPLDKACAEDDDEEDEEEEEEEPDPDPEMEHV [MBD3] | 0.334 | 0.629
MERMNWLSRLASRGPGHRIPQGANLQTPVMADPETCLMVFKNHWSQVVRILERQGPRAAPGGADDLSAVRNHTYQMLTLLAEDRAVPSAPTGPGPLLEFALHEDLLTRVLTWQLQWDELGDGVEERRAEQLKLFEMLVSEARQPLLRHGPVREALLTLLDACGRPVPSSPALDEGLVLLLSQLCVCVAQEPSLLEFFLQPPPEPGAAPRLLLFSRLVPFVHREGTLGQQARDALLLLMALSAGSPTVGRYIADHSYFCPVLATGLSALYSSLPRKIEVPGDDWHCLRREDWLGVPALALFMSSLEFCNAVIQVAHPLVQKQLVDYIHNGFLVPVMGPALHKTSVEEMIASTAYLELFLRSISEPALLRTFLRFLLLHRHDTHTILDTLVARIGSNSRLCMVSLSLFRTLLNLSCEDVLLQLVLRYLVPCNHVMLSQKPAVRDVDLYGRAADKFLSLIPRCCRHHAPSPPRPEHASWARGPGSPSVDSSSVTTVPRPSTPSRLALFLRQQSLGGSESPGPAPCSPGLSASPASSPGRRPTPAEEPGELEDNYLEYLREARRGVDRCVRACRTWSAPYDGERPSPEPSPFGSRTKKRSLLPEEDRNNVGEGEEEELGRRGRAGGAGEGPGHLPPPQLNGVPGSWPEGAKKVRLVPKEGAGELLEGISEGMAGLEGFGQELRELEVALSNGGTGSESPLEPPLPLEEEEAYESFTCPPEPPGPFLSSPLRTLNQLPSQPFTGPFMAVLFAKLENMLQNSVYVNFLLTGLVAQLACHPQPLLRSFLLNTNMVFQPSVKSLLQVLGSVKNKIENFAASQEDFPALLSKAKKYLIARGKLDWAEGPAAGPAPRRSDPLVKSRRPSLGELLLRHAHSPTRARQAAQLVLQPGRDGAGLGLSGGSPGASTPVLLTRGGAPERQGEALRVKNAVYCAVIFPEFLKELAAISQAHAVTSPFLLETSEEGSGPLISGCGPLNP [FAM160A2] | 0.177 | 0.0167
METPPVNTIGEKDTSQPQQEWEKNLRENLDSVIQIRQQPRDPPTETLELEVSPDPASQILEHTQGAEKLVAELEGDSHKSHGSTSQMPEALQASDLWYCPDGSFVKKIVIRGHGLDKPKLGSCCRVLALGFPFGSGPPEGWTELTMGVGPWREETWGELIEKCLESMCQGEEAELQLPGHSGPPVRLTLASFTQGRDSWELETSEKEALAREERARGTELFRAGNPEGAARCYGRALRLLLTLPPPGPPERTVLHANLAACQLLLGQPQLAAQSCDRVLEREPGHLKALYRRGVAQAALGNLEKATADLKKVLAIDPKNRAAQEELGKVVIQGKNQDAGLAQGLRKMFG [FKBPL] | 0.618 | 0.144
